The binders below were run against HLA-B*07 (human) (assay: UV peptide exchange ELISA; ++ = yield >20%).

Binder	peptide exchange yield [%]
RTKEEINEL	20 to 50
MAGPAIHTAPM	20 to 50

Each binder was assayed against HLA-B*07 (human) (assay: UV peptide exchange ELISA; +++ = yield >50).

Binder	peptide exchange yield [%]
YPGFTKRL	50 to 75
RPEDGRPRL	50 to 75
RPFLRLPSL	50 to 75
QPISGNPVTL	50 to 75
FPHMATTAF	50 to 75
LPLRAVNLNL	50 to 75
RPQGAVGGL	50 to 75
LPPPRALTL	50 to 75
VPVSHPVLTL	50 to 75
RPRPPKVLGL	50 to 75
SPYADIIPSA	50 to 75
KEDNPSGHTYTL	50 to 75
APRPRLLLL	50 to 75
LPLGGLPLLI	50 to 75
LPMSKRQEY	50 to 75
TRPWSGPYIL	50 to 75
APFAPLHGGGSL	50 to 75
PEKARAFL	50 to 75
APCNGNVAV	50 to 75
RPFSREMDL	50 to 75
VPAAPTKAL	50 to 75
APLPPPRAL	50 to 75
HPAPPVTSA	50 to 75
SALPTTISF	50 to 75
APMAPGRSP	50 to 75
VPSCGRSVEGL	50 to 75

Binder	peptide exchange yield [%]
SAAPPGASL	50 to 75
RIRVTSEVL	50 to 75
SPARALLLALA	50 to 75
APVGGNVTSSF	50 to 75
VPFVPRTSV	50 to 75
HPSQESPTL	50 to 75
RPGPSDPAA	50 to 75
MPMQDIKMILKM	50 to 75
RPRYSIGL	50 to 75
RPRPPKVL	50 to 75
APSMLRKNQL	50 to 75
MPAVSGPGPLF	50 to 75
TSPLPPTV	50 to 75
KPQSTISGL	50 to 75
APRSPGQVTPRGL	50 to 75
YVVKPLHPF	50 to 75
KPAAAGVKKVA	50 to 75
QPRPSSEKI	50 to 75
GPASDHPSL	50 to 75
APEKARAFL	50 to 75
KPRATWTL	50 to 75
SPFSKRIKL	50 to 75
KPRATWTLKL	50 to 75
MPMQDIKMI	50 to 75
HVRPQTNCI	50 to 75
KPMLPPAAF	50 to 75
